In patent publication US20240209114A1 (JIANGSU HENGRUI PHARMACEUTICALS, published 2024):

Assays:
[1] = biological target: T1, MASP2 in human serum (human, UniProt O00187 16-686); experiment: cell-based or functional assay
[2] = biological target: T1, MASP2 in human serum; experiment: cell-based or functional assay; remark: listed apart in the source
[3] = biological target: MASP2 in monkey serum (monkey); experiment: cell-based or functional assay
[4] = biological target: MASP2 in mouse serum (mouse, UniProt Q91WP0 20-685); experiment: cell-based or functional assay
[5] = biological target: Murine MASP2A (S632A) protein (murine, UniProt Q91WP0 16-685); experiment: SPR (Biacore 8K), antibody captured on anti-human Fc chip, antigen as analyte, 1:1 fit
Method: The binding properties of the anti-MASP2 antibodies were determined by the method of Biacore. […] An anti-human Fc IgG capture chip was used to capture the antibodies, then antigens with different concentrations were used as a mobile phase for the determination, and finally curve fitting was performed according to a 1:1 mode to obtain affinity values.

Chain of Murine MASP2A (S632A) protein (Q91WP0 other isoform, or with tags, fused parts or gaps S632A S632A): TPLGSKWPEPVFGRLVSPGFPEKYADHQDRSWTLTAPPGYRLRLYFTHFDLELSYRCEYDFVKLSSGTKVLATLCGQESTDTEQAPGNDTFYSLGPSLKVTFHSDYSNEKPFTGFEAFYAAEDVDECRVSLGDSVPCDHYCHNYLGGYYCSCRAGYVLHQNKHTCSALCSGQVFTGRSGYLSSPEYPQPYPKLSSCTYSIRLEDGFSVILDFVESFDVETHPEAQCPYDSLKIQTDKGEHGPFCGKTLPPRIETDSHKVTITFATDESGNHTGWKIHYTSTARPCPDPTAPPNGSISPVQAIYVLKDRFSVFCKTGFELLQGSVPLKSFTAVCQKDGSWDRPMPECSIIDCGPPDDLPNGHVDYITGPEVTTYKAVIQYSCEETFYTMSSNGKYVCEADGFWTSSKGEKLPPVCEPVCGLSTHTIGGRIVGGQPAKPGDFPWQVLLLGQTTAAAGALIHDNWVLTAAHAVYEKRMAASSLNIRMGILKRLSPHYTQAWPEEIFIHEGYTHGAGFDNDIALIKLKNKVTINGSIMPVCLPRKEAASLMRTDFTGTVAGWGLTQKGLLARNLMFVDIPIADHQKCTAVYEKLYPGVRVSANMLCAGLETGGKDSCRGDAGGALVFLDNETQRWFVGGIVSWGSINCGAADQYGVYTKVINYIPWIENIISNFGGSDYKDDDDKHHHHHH
T1 sequence (O00187 16-686 limits assumed): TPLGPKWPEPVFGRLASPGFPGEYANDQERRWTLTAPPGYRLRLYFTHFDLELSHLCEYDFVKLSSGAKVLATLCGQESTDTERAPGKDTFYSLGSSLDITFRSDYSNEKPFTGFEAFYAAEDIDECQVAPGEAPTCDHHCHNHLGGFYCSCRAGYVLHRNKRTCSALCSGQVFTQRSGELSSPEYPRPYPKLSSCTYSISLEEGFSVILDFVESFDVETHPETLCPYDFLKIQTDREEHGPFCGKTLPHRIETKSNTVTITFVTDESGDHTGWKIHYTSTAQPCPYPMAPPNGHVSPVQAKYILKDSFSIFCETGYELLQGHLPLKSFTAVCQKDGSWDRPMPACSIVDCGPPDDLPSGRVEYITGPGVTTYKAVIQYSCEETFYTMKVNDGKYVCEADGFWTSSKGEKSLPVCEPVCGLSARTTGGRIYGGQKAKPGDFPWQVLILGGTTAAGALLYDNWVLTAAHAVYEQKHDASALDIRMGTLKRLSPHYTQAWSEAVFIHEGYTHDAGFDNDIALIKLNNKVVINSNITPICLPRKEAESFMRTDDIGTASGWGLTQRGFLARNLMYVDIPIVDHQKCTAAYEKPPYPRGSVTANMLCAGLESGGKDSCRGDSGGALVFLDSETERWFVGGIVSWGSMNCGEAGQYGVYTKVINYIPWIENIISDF
Chain of MASP2 in mouse serum (Q91WP0 20-685 limits assumed): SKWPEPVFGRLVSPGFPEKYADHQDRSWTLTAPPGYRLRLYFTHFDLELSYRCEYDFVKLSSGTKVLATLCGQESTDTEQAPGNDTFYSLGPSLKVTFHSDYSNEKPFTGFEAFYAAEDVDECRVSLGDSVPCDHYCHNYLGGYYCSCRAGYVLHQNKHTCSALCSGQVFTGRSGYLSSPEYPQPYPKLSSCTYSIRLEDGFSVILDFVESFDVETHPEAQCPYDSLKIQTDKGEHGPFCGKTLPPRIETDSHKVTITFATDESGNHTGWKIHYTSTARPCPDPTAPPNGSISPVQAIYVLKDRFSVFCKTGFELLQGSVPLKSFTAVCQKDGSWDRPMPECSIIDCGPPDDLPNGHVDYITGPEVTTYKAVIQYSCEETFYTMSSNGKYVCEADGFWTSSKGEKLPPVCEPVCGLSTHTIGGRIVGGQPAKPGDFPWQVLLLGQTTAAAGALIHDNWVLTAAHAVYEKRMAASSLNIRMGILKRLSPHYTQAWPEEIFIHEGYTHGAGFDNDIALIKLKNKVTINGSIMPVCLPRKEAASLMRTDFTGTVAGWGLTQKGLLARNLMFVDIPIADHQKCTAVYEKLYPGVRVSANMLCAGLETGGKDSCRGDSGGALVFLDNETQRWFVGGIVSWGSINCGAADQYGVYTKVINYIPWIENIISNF

B1: 11165 (antibody, human IgG4 S228P, lambda, V domains shown)
VH: QVQLQESGPGLVKPSETLSLTCTVSGGSISSGEYFWGWIRQPPGKGLEWIGSIYYSGSTYYNPSLKSRVTISVDTSKNQFSLKLSSVTAADTAVYYCARSLKAARRDAFDIWGQGTTVTVSS
VL: QSVLTQPPSVSVSPGQTASITCSGHKLGDKYAYWYQQKPGQSPVLVIYQDTKRPSGIPERFSGFNSGNTATLTISGTQATDEADYYCQTWDSSTGVFGAGTKVTVLG
notes: Fully human antibody from phage display; Full-length human IgG4 (S228P), lambda light chain
B1 was tested, and the “IC50 (µg/mL), inhibition of the lectin pathway in 1% human serum (C4c deposition on mannan)” value [1] was 0.499 µg/mL, the “90% human serum IC50 (µg/mL), inhibition of the lectin pathway (C4c deposition on mannan)” value [2] was 0.93 µg/mL and the “90% monkey serum IC50 (µg/mL), inhibition of the lectin pathway (C4c deposition on mannan)” value [3] was 21.1 µg/mL. The “90% mouse serum IC50 (µg/mL), inhibition of the lectin pathway (C4c deposition on mannan)” value [4] was 4.26 µg/mL, the Kd [5] was 0.435 nM and the koff [5] was 0.00192 s⁻¹. It also gave a kon [5] of 4.41e+06 M⁻¹ s⁻¹.
